Here are results for 2 molecules from paper PMC9927398.

Data set [1] has as its target T1, CRP WT (CRPMtb) (Mycobacterium tuberculosis (strain for …, UniProt P9WMH3 1-224)).
T1 sequence: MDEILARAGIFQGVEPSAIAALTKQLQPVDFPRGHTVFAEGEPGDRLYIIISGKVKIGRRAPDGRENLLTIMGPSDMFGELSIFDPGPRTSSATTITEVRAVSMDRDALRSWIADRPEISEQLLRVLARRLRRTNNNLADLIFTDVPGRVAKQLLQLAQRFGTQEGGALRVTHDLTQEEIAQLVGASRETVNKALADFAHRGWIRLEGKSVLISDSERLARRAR
In words: EMSA; no cAMP; 5 and 15 uM protein. The note with it: protein: recombinant; tags: His tag (Ni2+ purified; pET28a); chain copies: 2; blunt. On the technique in general: Mobility shift assays separate free from complexed probe on a gel.

In data set [2] the target is T1, CRP WT (CRPMtb). As to the kind of experiment: competition. As to conditions: protein: recombinant; tags: His tag (Ni2+ purified; pET28a); chain copies: 2; blunt.

B1: 2D3 (dsDNA)
DNA 1: CTCTATGTGACGAAGCCCACATCGAC
DNA 2: GTCGATGTGGGCTTCGTCACATAGAG
On to B1, for which, in the data set with CRP WT (CRPMtb) [1], the binding result is listed as “binds”.

B2: 2D3 unlabeled competitor (dsDNA)
DNA 1: CTCTATGTGACGAAGCCCACATCGAC
DNA 2: GTCGATGTGGGCTTCGTCACATAGAG
Consider B2, for which, in the data set with CRP WT (CRPMtb) [2], the binding result is listed as “binds”.
